Assay [1] deals with T1, CD16aV allotype of human CD16a expressed on Jurkat-Lucia-NFAT-CD16 Reporter cells (InvivoGen) (human, UniProt P08637 17-254). Put plainly: cell-based or functional assay.
The target of assay [2] is T1, CD16aV allotype of human CD16a …. Put plainly: cell-based or functional assay. This is another data set of the same source.
Assay [3] concerns the target T2, full length human CD16b stably expressed on transduced WT Jurkat cells (human, UniProt O75015 17-200).
T2 construct: whole, on cells; also called CD16b expressing cells; Jurkat CD16b
Briefly: flow cytometry on Jurkat-CD16b cells, 5-fold serial dilutions, detection with Penta-His Alexa Fluor 488. The method, then: Serial dilutions (5-fold) of the constructs were incubated 30 min at 4° C. with 50000 cells in a 96-well plate. […] Cold buffer was added, then cells were spun down prior to supernatant removal. Cells were then fixed with Cell fix buffer (BD) and signal was measured by flow cytometry.

The target of assay [4] is T3, CD32a expressed on Jurkat-NFAT-CD32a reporter cells (Invivogen jktl-nfat-cd32) (UniProt P12318 34-317, limits assumed).
T3 construct: whole, on cells; also called Jurkat-Lucia NFAT-CD32a Reporter cells; Fc receptor CD32a
T3 sequence (looked up): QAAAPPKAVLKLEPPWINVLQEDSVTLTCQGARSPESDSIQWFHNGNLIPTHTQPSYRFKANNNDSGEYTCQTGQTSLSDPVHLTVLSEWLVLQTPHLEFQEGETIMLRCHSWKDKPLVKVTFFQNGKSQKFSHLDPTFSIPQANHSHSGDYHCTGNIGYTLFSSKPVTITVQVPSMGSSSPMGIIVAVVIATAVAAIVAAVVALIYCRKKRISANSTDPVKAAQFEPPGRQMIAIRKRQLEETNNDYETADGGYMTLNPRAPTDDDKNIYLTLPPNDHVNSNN
Briefly: flow cytometry on Jurkat-NFAT-CD32a cells, 4-fold serial dilutions, detection with anti-DARPin 1.1.1 antibody. The method, then:
Serial dilutions (4-fold) of the constructs were incubated 30 min at 4° C. with 50000 cells in a 96-well plate. Detection antibody (anti-DARPin 1.1.1 Alexa Fluor […]) was subsequently added to the wells (2 μg/ml diluted in FACS buffer) and incubated at 4° C. for 30 min. Cold buffer was added, then cells were spun down prior to supernatant removal. Cells were then fixed with Cell fix buffer (BD) and signal was measured by flow cytometry.

Assay [5] concerns the target T2, full length human CD16b stably …. Briefly: flow cytometry on Jurkat-CD16b cells, serial dilutions, detection with Penta-His Alexa Fluor 647.

T1 sequence (P08637 17-254 F176V): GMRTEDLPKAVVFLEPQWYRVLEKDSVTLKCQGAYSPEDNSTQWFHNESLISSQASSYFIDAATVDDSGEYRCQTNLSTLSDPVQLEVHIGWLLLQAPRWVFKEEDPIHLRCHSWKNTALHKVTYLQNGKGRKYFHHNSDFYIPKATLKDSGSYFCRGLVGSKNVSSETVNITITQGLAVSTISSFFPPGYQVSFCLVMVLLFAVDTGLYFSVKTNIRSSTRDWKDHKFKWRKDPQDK
T2 sequence (O75015 17-200): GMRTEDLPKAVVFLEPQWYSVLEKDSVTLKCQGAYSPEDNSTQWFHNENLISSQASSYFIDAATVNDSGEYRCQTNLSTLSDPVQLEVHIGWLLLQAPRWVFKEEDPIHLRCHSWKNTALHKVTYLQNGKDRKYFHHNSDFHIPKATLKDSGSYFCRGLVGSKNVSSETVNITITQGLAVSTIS

B1: Construct No. 20 (SEQ ID NO: 89), CD117 × CD16a, CD117 binder SEQ ID NO: 84 and DARPin #2 (designed binder)
chain: MRGSHHHHHHGSDLGQKLLKAAQYGQDDEVRILLAAGADVNAKDWAGKTPLHVAAEAGHLEIVEVLLKAGADVNAKDKAGETPLHLAAEQGHLEIVEVLLKAGADVNAQDEWGQTPADLAAYYGLEDIAEVLQKAAGSPTPTPTTPTPTPTTPTPTPTGSDLGQKLLRAAKKGQDDEVRELLKAGADVNAKDEQGWTPLHIAAWKGHLEIVEVLLKAGADVNAKDVFDWTPLHVAAHFGHLEIVEVLLKAGADVNAQDRAGETPADLAAQAGHEDIAEVLQKAA
Regarding B1, in assay [1], the “EC50 (pM), DDCC reporter assay (luminescence), Kasumi-1 target cells, E:T 1:1, 24 h” value (shortened to “EC50 (pM), DDCC reporter assay”) was found to be 86.2 pM and the “Top (RLU), DDCC reporter assay (luminescence), Kasumi-1 target cells” value (from here on “Top (RLU), DDCC reporter assay”) turned out to be 26500 RLU.

B2: Construct No. 9 (SEQ ID NO: 14), 2D (HER2 × CD16a), DARPin #3 with N-terminal HER2 binder of SEQ ID NO: 8 (designed binder)
chain: MRGSHHHHHHGSDLGKKLLEAARAGQDDEVRELLKAGADVNAKDEYGLTPLYLATAHGHLEIVEVLLKAGADVNAVDAIGFTPLHLAAFIGHLEIAEVLLKAGADVNAQDKFGKTPADIAAGAGNEDIAEVLQKAAGSPTPTPTTPTPTPTTPTPTPTGSDLGKKLLQAARAGQLDEVRELLKAGADVNAKDEQGRTPLHIAAASGHLEIVEVLLKAGADVNAKDWFGITPLHIAAWWGHLEIVEVLLKAGADVNAKDQEGRTPLHIAAAIGHLEIVEVLLKAGADVNAQDKSGKTPADLAARAGHQDIAEVLQKAA
With B2, the “EC50 (pM), ADCC reporter assay (luminescence), SKOV3 target cells, E:T 5:1, 5 h” value (“EC50 (pM), ADCC reporter assay” for short) in assay [2] worked out at 1.6 pM.

B3: Construct No. 4 (SEQ ID NO: 15), 2D (HER2 × CD16a), DARPin #3 with N-terminal HER2 binder of SEQ ID NO: 9 (designed binder)
chain: MRGSHHHHHHGSDLGIKLLFAAAKGQDDEVRELLKAGADVNAKDFQGVTPLHIAAQSGHLEIVEVLLKAGADVNAKDVTGDTPLHLAAQHGHLEIVEVLLKAGADVNAQDERGWTPADLAADWGHEDIAEVLQKAAGSPTPTPTTPTPTPTTPTPTPTGSDLGKKLLQAARAGQLDEVRELLKAGADVNAKDEQGRTPLHIAAASGHLEIVEVLLKAGADVNAKDWFGITPLHIAAWWGHLEIVEVLLKAGADVNAKDQEGRTPLHIAAAIGHLEIVEVLLKAGADVNAQDKSGKTPADLAARAGHQDIAEVLQKAA
notes: Bispecific DARPin; also called Construct 4
As to B3, the “EC50 (pM), ADCC reporter assay” value in assay [2] came out at 0.7 pM. Besides, the binding result in assay [3] is on record as “no binding (tested: 1000 nM)”.

B4: Construct No. 21 (SEQ ID NO: 90), CD117 × CD16a, CD117 binder SEQ ID NO: 85 and DARPin #2 (designed binder)
chain: MRGSHHHHHHGSDLGAKLLKAAQSGQDDEVRILLAAGADVNAKDKDGYTPLHLAAREGHLEIVEVLLKAGSDVNAKDYYGETPLHQAAEYGHLEIVEVLLKAGADVNAQDEWGATPADLAAQQGHEDIAEVLQKAAGSPTPTPTTPTPTPTTPTPTPTGSDLGQKLLRAAKKGQDDEVRELLKAGADVNAKDEQGWTPLHIAAWKGHLEIVEVLLKAGADVNAKDVFDWTPLHVAAHFGHLEIVEVLLKAGADVNAQDRAGETPADLAAQAGHEDIAEVLQKAA
Regarding B4, in assay [1], the “EC50 (pM), DDCC reporter assay” value is 32.3 pM and the “Top (RLU), DDCC reporter assay” value is 23200 RLU.

B5: Construct No. 24 (SEQ ID NO: 93), CD117 × CD16a, CD117 binder SEQ ID NO: 88 and DARPin #2 (designed binder)
chain: MRGSHHHHHHGSDLGHKLLHAAAWGQDDEVRILLAAGADVNAKDQSGWTPLHVAAWYGHLEIVEVLLKAGADVNAKDLKGETPLHLAALVGHLEIVEVLLKAGADVNAQDIAGDTPADLAAIAGHEDIAEVLQKAAGSPTPTPTTPTPTPTTPTPTPTGSDLGQKLLRAAKKGQDDEVRELLKAGADVNAKDEQGWTPLHIAAWKGHLEIVEVLLKAGADVNAKDVFDWTPLHVAAHFGHLEIVEVLLKAGADVNAQDRAGETPADLAAQAGHEDIAEVLQKAA
Consider B5, for which, in assay [1], the “EC50 (pM), DDCC reporter assay” value came out at 96.1 pM and the “Top (RLU), DDCC reporter assay” value is 8470 RLU.

B6: Construct No. 10 (SEQ ID NO: 16), 2D (CD16a × HER2), DARPin #3 with C-terminal HER2 binder of SEQ ID NO: 8 (designed binder)
chain: MRGSHHHHHHGSDLGKKLLQAARAGQLDEVRELLKAGADVNAKDEQGRTPLHIAAASGHLEIVEVLLKAGADVNAKDWFGITPLHIAAWWGHLEIVEVLLKAGADVNAKDQEGRTPLHIAAAIGHLEIVEVLLKAGADVNAQDKSGKTPADLAARAGHQDIAEVLQKAAGSPTPTPTTPTPTPTTPTPTPTGSDLGKKLLEAARAGQDDEVRELLKAGADVNAKDEYGLTPLYLATAHGHLEIVEVLLKAGADVNAVDAIGFTPLHLAAFIGHLEIAEVLLKAGADVNAQDKFGKTPADIAAGAGNEDIAEVLQKAA
With B6, the “EC50 (pM), ADCC reporter assay” value in assay [2] was 24 pM.

B7: Construct No. 8 (SEQ ID NO: 12), 2D (CD16a × HER2), DARPin #2 with C-terminal HER2 binder of SEQ ID NO: 8 (designed binder)
chain: MRGSHHHHHHGSDLGQKLLRAAKKGQDDEVRELLKAGADVNAKDEQGWTPLHIAAWKGHLEIVEVLLKAGADVNAKDVFDWTPLHVAAHFGHLEIVEVLLKAGADVNAQDRAGETPADLAAQAGHEDIAEVLQKAAGSPTPTPTTPTPTPTTPTPTPTGSDLGKKLLEAARAGQDDEVRELLKAGADVNAKDEYGLTPLYLATAHGHLEIVEVLLKAGADVNAVDAIGFTPLHLAAFIGHLEIAEVLLKAGADVNAQDKFGKTPADIAAGAGNEDIAEVLQKAA
notes: Bispecific DARPin; also called Construct 8
In the case of B7, the “EC50 (pM), ADCC reporter assay” value in assay [2] came out at 0.24 pM. Also, the binding result in assay [4] is recorded as “no binding (tested: 400 nM)”.

B8: Construct No. 22 (SEQ ID NO: 91), CD117 × CD16a, CD117 binder SEQ ID NO: 86 and DARPin #2 (designed binder)
chain: MRGSHHHHHHGSDLGKKLLQAARAGQLDEVRELLKAGADVNAKDVYGLTPLHLAAREGHLEIVEVLLKAGADVNAKDAYGETPLHLAAEAGHLEIVEVLLKAGADVNAKDEWGETPLNVAARAGHQDIAEVLQKAAGSPTPTPTTPTPTPTTPTPTPTGSDLGQKLLRAAKKGQDDEVRELLKAGADVNAKDEQGWTPLHIAAWKGHLEIVEVLLKAGADVNAKDVFDWTPLHVAAHFGHLEIVEVLLKAGADVNAQDRAGETPADLAAQAGHEDIAEVLQKAA
Turning to B8, in assay [1], the “EC50 (pM), DDCC reporter assay” value came to 25.2 pM and the “Top (RLU), DDCC reporter assay” value came to 22000 RLU.

B9: Construct No. 5 (SEQ ID NO: 11), 2D (HER2 × CD16a), DARPin #2 with N-terminal HER2 binder of SEQ ID NO: 9 (designed binder)
chain: MRGSHHHHHHGSDLGIKLLFAAAKGQDDEVRELLKAGADVNAKDFQGVTPLHIAAQSGHLEIVEVLLKAGADVNAKDVTGDTPLHLAAQHGHLEIVEVLLKAGADVNAQDERGWTPADLAADWGHEDIAEVLQKAAGSPTPTPTTPTPTPTTPTPTPTGSDLGQKLLRAAKKGQDDEVRELLKAGADVNAKDEQGWTPLHIAAWKGHLEIVEVLLKAGADVNAKDVFDWTPLHVAAHFGHLEIVEVLLKAGADVNAQDRAGETPADLAAQAGHEDIAEVLQKAA
notes: Bispecific DARPin; also called Construct 5
On to B9, for which the “EC50 (pM), ADCC reporter assay” value in assay [2] came to 0.39 pM. Besides, the binding result in assay [5] is reported as “no binding (tested: 1000 nM)”; in assay [4] it was “no binding (tested: 400 nM)”.

B10: Construct No. 6 (SEQ ID NO: 17), 2D (CD16a × HER2), DARPin #3 with C-terminal HER2 binder of SEQ ID NO: 9 (designed binder)
chain: MRGSHHHHHHGSDLGKKLLQAARAGQLDEVRELLKAGADVNAKDEQGRTPLHIAAASGHLEIVEVLLKAGADVNAKDWFGITPLHIAAWWGHLEIVEVLLKAGADVNAKDQEGRTPLHIAAAIGHLEIVEVLLKAGADVNAQDKSGKTPADLAARAGHQDIAEVLQKAAGSPTPTPTTPTPTPTTPTPTPTGSDLGIKLLFAAAKGQDDEVRELLKAGADVNAKDFQGVTPLHIAAQSGHLEIVEVLLKAGADVNAKDVTGDTPLHLAAQHGHLEIVEVLLKAGADVNAQDERGWTPADLAADWGHEDIAEVLQKAA
notes: Bispecific DARPin; also called Construct 6
Turning to B10, the “EC50 (pM), ADCC reporter assay” value in assay [2] worked out at 3.5 pM. Also, the binding result in assay [5] is given as “no binding (tested: 1000 nM)”.

B11: Construct No. 11 (SEQ ID NO: 18), 2D (CD16a × HER2), DARPin #1 with C-terminal HER2 binder of SEQ ID NO: 9 (designed binder)
chain: MRGSHHHHHHGSDLGKKLLQAARAGQLDEVRELLKAGADVNAKDWSGFTPLHIAAVQGHLEIVEVLLKAGADVNAKDHSGWTPLHVAAFSGHLEIVEVLLKAGADVNAKDATGQTPLHLAARTGHLEIVEVLLKAGADVNAQDKSGKTPADLAARAGHQDIAEVLQKAAGSPTPTPTTPTPTPTTPTPTPTGSDLGIKLLFAAAKGQDDEVRELLKAGADVNAKDFQGVTPLHIAAQSGHLEIVEVLLKAGADVNAKDVTGDTPLHLAAQHGHLEIVEVLLKAGADVNAQDERGWTPADLAADWGHEDIAEVLQKAA
B11: the “EC50 (pM), ADCC reporter assay” value in assay [2] turned out to be 4.1 pM.

B12: Construct No. 23 (SEQ ID NO: 92), CD117 × CD16a, CD117 binder SEQ ID NO: 87 and DARPin #2 (designed binder)
chain: MRGSHHHHHHGSDLGKKLLKAASWGQDDEVRILLAAGADVNAKDNSGWTPLHAAAWYGHLEIVEVLLKAGADVNAKDKTGLTPLHKAAHVGHLEIVEVLLKAGADVNAQDEWGATPADLAASTGHEDIAEVLQKAAGSPTPTPTTPTPTPTTPTPTPTGSDLGQKLLRAAKKGQDDEVRELLKAGADVNAKDEQGWTPLHIAAWKGHLEIVEVLLKAGADVNAKDVFDWTPLHVAAHFGHLEIVEVLLKAGADVNAQDRAGETPADLAAQAGHEDIAEVLQKAA
For the molecule B12, in assay [1], the “EC50 (pM), DDCC reporter assay” value was determined as 120 pM and the “Top (RLU), DDCC reporter assay” value was 7870 RLU.

The record behind these values is US20260250338A1 (Molecular Partners, published 2026).
